Results: paper PMC7096399

Columns and labels:
[1] = biological target: His6-tagged FGF2 (Fibroblast Growth Factor 2, 18 kDa isoform), wild type, P09038-2; experiment: AlphaScreen; conditions: His-FGF2 and GST-α1-subCD3 variants cross-titrated from 500 to 8 nM in PBS, 0.1% (w per v) BSA, 0.05% (w per v) Tween 20; selected concentration pairs …; parent: est. 100; read off a plot
[2] = biological target: α1-subCD3 as used in cross-linking and NMR experiments (migrates at 27 kDa) (human) (UniProt P05023); experiment: cross-linking; BMOE (1:1 to protein) or DSG (4:1) at 25 °C in HK buffer (25 mM Hepes pH 7.4, 150 mM KCl); single proteins 10 µM, mixtures 20 µM total at ratios 1:1, 1:2, 2:1; SDS-PAGE with Coomassie staining or western blot

| Substance | percent of parent [1] | stoichiometry N [2] |
| --- | --- | --- |
| GST-α1-subCD3, small sub-domain of loop 3 of the cytoplasmic domain of α1 (from UniProt P05023) K524E; E525R | 100% |  |
| GST-α1-subCD3, small sub-domain of loop 3 of the cytoplasmic domain of α1 (from UniProt P05023) K524M; E525Q | 100% |  |
| GST-α1-subCD3, small sub-domain of loop 3 of the cytoplasmic domain of α1, P05023 D560N | 60% |  |
| GST-α1-subCD3, small sub-domain of loop 3 of the cytoplasmic domain of α1, P05023 K524M; E525Q; E498Q | 110% |  |
| His6-tagged FGF2 (Fibroblast Growth Factor 2, 18 kDa isoform), wild type (from UniProt P09038-2 1-155) (natural protein) |  | 1 |
